This passage reports binding result, binding signal and Kd results from paper PMC7079142.

Like-named read-outs stand apart in the source and are kept apart here.

Series [1] concerns the target T1, PROP1-cMyc-DDK (UniProt O75360 1-226). The series can be described thus: TR-FRET competition.
Series [2] concerns the target T2, StrepII-SUMO-DUX4-His6 (Homo sapiens, UniProt Q9UBX2 1-424). The series can be described thus: TR-FRET competition. (Time-resolved FRET reads energy transfer from a long-lived donor to a nearby acceptor.)
The target in series [3] is T2, StrepII-SUMO-DUX4-His6. The series can be described thus: TR-FRET competition. This is another data set of the same source.
Series [4] concerns the target T2, StrepII-SUMO-DUX4-His6. The series can be described thus: TR-FRET competition. This is another data set of the same source.
The target in series [5] is T2, StrepII-SUMO-DUX4-His6. In words: TR-FRET competition. This is another data set of the same source.
Series [6] has as its target T2, StrepII-SUMO-DUX4-His6. In words: TR-FRET competition. The source holds these as a separate data set.
For series [7], the target named is T1, PROP1-cMyc-DDK. In words: TR-FRET competition. This is another data set of the same source.
In series [8] the target is T2, StrepII-SUMO-DUX4-His6. In words: TR-FRET competition. This is another data set of the same source.
In series [9] the target is T2, StrepII-SUMO-DUX4-His6. In words: TR-FRET competition. The source holds these as a separate data set.
In series [10] the target is T2, StrepII-SUMO-DUX4-His6. The series can be described thus: TR-FRET competition. The source holds these as a separate data set.
Series [11] addresses T2, StrepII-SUMO-DUX4-His6. In words: EMSA.
Series [12] deals with T2, StrepII-SUMO-DUX4-His6. The series can be described thus: TR-FRET competition. This is another data set of the same source.
For series [13], the target named is T2, StrepII-SUMO-DUX4-His6. The series can be described thus: TR-FRET competition. This is another data set of the same source.
Series [14] deals with T2, StrepII-SUMO-DUX4-His6. In words: fluorescence polarization. Background: Fluorescence polarisation rises when a labelled molecule tumbles more slowly, as on binding a larger partner.
The target of series [15] is T1, PROP1-cMyc-DDK. In words: TR-FRET competition. This is another data set of the same source.
Series [16] deals with T2, StrepII-SUMO-DUX4-His6. The series can be described thus: TR-FRET competition. The source holds these as a separate data set.
Series [17] has as its target T2, StrepII-SUMO-DUX4-His6. In words: TR-FRET competition. The source holds these as a separate data set.
The target in series [18] is T2, StrepII-SUMO-DUX4-His6. The series can be described thus: TR-FRET competition. This is another data set of the same source.

T2 sequence (Q9UBX2 whole entry): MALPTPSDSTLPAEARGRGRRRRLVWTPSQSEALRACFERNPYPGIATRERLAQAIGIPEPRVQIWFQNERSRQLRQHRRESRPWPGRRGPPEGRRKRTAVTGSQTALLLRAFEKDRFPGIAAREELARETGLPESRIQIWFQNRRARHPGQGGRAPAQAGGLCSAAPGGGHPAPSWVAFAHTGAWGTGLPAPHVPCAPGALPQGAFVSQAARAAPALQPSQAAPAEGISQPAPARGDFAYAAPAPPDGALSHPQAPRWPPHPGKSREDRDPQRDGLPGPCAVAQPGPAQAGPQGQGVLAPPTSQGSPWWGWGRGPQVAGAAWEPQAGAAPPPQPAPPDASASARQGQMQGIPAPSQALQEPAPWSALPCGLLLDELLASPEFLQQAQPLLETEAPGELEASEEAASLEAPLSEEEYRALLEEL
T1 sequence (O75360 whole entry): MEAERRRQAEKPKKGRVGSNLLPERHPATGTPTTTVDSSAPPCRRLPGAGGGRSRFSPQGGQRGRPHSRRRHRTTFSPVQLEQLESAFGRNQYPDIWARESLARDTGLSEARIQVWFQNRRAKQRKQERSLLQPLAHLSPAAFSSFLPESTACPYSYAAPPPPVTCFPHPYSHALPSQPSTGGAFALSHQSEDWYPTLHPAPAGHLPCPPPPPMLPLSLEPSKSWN

Regarding GCTAACTTAACTCAACCGCAGGTTGATTAACCCGTTAGC (structured_DNA) [DUX4_CTT_F8C_R7CCC], the binding result in the series with PROP1-cMyc-DDK [1] was “binds”. Moreover, in the series with StrepII-SUMO-DUX4-His6 [2], the binding signal was ~2 fold lower affinity than single-loop DUX4_CTT_R7CCC.
In the case of GCTAATCTAATCAACCGCAGGTTGATTAGTTTATTAGC (structured_DNA) [DUX4_TCT_R7TTT], in the series with StrepII-SUMO-DUX4-His6 [3], the binding result is listed as “binds”.
As for GCTAATCTAATCAACCGCAGGTTGATTAGCCCCATTAGC (structured_DNA) [DUX4_TCT_R7CCCC], the binding result with StrepII-SUMO-DUX4-His6 [4] is reported as “binds”.
For the molecule GCTAATCTAATCAACCGCAGGTTGATTAGATTAGC (structured_DNA) [DUX4_TCT], in the series with StrepII-SUMO-DUX4-His6 [5], the binding signal was ~3 fold higher IC50 than DUX4_CCT.
In the case of GCTAACCTAATCAACCGCAGGTTGATTAGGTTAGC (structured_DNA) [DUX4_CCT], the binding result with StrepII-SUMO-DUX4-His6 [6] was “binds”.
Consider GCTAATTTAATTAACCGCAGGTTAATTAAATTAGC (structured_DNA) [PROP1 aptamer], for which the binding result with PROP1-cMyc-DDK [7] is “binds”.
On to GCTAATCTAATCAACCGCAGGTTGATTAGCATTAGC (structured_DNA) [DUX4_TCT_R7C], for which, in the series with StrepII-SUMO-DUX4-His6 [4], the binding result is recorded as “binds”.
GCTAATCTAACCCCTCAACCGCAGGTTGATTAGATTAGC (structured_DNA) [DUX4_TCT_F8CCCC]: the binding result in the series with StrepII-SUMO-DUX4-His6 [8] is “binds”.
As to GCTAATCTAACTCAACCGCAGGTTGATTAGATTAGC (structured_DNA) [DUX4_TCT_F8C], the binding result with StrepII-SUMO-DUX4-His6 [9] was “binds”.
For GCTAATCTAAGTCAACCGCAGGTTGATTAGATTAGC (structured_DNA) [DUX4_TCT_F8G], the binding result in the series with StrepII-SUMO-DUX4-His6 [10] was “binds”.
For GCTAATCTAATTCAACCGCAGGTTGATTAGATTAGC (structured_DNA) [DUX4_TCT_F8T], in the series with StrepII-SUMO-DUX4-His6 [10], the binding result is listed as “binds”.
For AGCTAACCTAATCAACCGCAGGTTGATTAGCCCGTTAGC (structured_DNA) [DUX4_CTT_R7CCC as in T1 for S3B-C], the binding result with StrepII-SUMO-DUX4-His6 [11] is “binds”.
Take GCTAATCTAATCAACCGCAGGTTGATTAGCCATTAGC (structured_DNA) [DUX4_TCT_R7CC]: the binding result with StrepII-SUMO-DUX4-His6 [12] is given as “binds”.
As to GCTAATCTAACCTCAACCGCAGGTTGATTAGATTAGC (structured_DNA) [DUX4_TCT_F8CC], in the series with StrepII-SUMO-DUX4-His6 [13], the binding result is “binds”.
Take GCTAATCTAACTTCAACCGCAGGTTGATTAGATTAGC (structured_DNA) [DUX4_TCT_F8CT]: the binding result with StrepII-SUMO-DUX4-His6 [8] is on record as “binds”.
Broadly, the Kd is the concentration at which binding is half-saturated. The low end stands for higher affinity, the high end for lower affinity. Molecule GCTAACTTAATCAACCGCAGGTTGATTAGCCCATTAGC (structured_DNA) [Kd aptamer as printed in text and Fig 7] gave a Kd with StrepII-SUMO-DUX4-His6 [14] of roughly 20 nM.
Regarding GCTAACTTAATCAACCGCAGGTTGATTAACCCGTTAGC (structured_DNA) [DUX4_CTT_R7CCC (DUX4_CTT_loop)], the binding signal with PROP1-cMyc-DDK [15] is ~5 fold IC50 gain vs DUX4_CTT; with StrepII-SUMO-DUX4-His6 [16], ~21 fold IC50 gain vs DUX4_CTT; with StrepII-SUMO-DUX4-His6 [2], roughly 20 fold affinity vs backbone.
Consider GCTAATCTAATCAACCGCAGGTTGATTAGCCCATTAGC (structured_DNA) [DUX4_TCT_R7CCC], for which the binding signal with StrepII-SUMO-DUX4-His6 [17] was ~10 fold affinity vs loop-free template.
Turning to GCTAATCTAATCAACCGCAGGTTGATTAGCCCCCATTAGC (structured_DNA) [DUX4_TCT_R7CCCCC], in the series with StrepII-SUMO-DUX4-His6 [4], the binding result is on record as “binds”.
On to GCTAATCTAACCCTCAACCGCAGGTTGATTAGATTAGC (structured_DNA) [DUX4_TCT_F8CCC], for which the binding result in the series with StrepII-SUMO-DUX4-His6 [8] is “binds”.
As to TGGTGAAGCGCAAGGAAACTTAATCACAAGGTGATTAATTGTTTG (structured_DNA) [SELEX#2], the binding result in the series with StrepII-SUMO-DUX4-His6 [18] was “binds”.
On the same count and under the same terms, next, CTAGATTAACCCGTTTACCAAGCGATGGAAACTTAATCTCCATGG (structured_DNA) [SELEX#5]: “binds”; GCATAAACTTAATCAAGACCAGGTCATTGATTAACGCTCGTTTGG (structured_DNA) [SELEX#1]: “binds”.
